Test results published in the supplement of paper PMC10567573.

B1: FCHO1 (parent)
chain: FTSSPSPFSSSSPENVEDSGLDSP

Variants of: B1
Experiment: protein stability index of a GFP-peptide fusion (GPS, HEK-293T) (PSI 1-6); higher = more stable
Conditions: c terminus: a fixed tail appended
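Also: lentivirally expressed fusions sorted by FACS into six bins by GFP to DsRed ratio, PSI derived from sequencing read proportions per bin multiplied by bin number.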

| Variant | protein stability index |
| --- | --- |
| FTSSPSPFCSSSPENVEDSGLDSP [S9C] | 2.22 |
| FTSSPSPFYSSSPENVEDSGLDSP [S9Y] | 2.45 |
| FTSSPSPFTSSSPENVEDSGLDSP [S9T] | 2.29 |
| FTSSPSPFPSSSPENVEDSGLDSP [S9P] | 3.79 |
| FTSSPSPFGSSSPENVEDSGLDSP [S9G] | 2.2 |
| FTSSPSPFVSSSPENVEDSGLDSP [S9V] | 1.73 |
| FTSSPSPFHSSSPENVEDSGLDSP [S9H] | 1.84 |
| FTSSPSPFASSSPENVEDSGLDSP [S9A] | 2.09 |
| FTSSPSPFNSSSPENVEDSGLDSP [S9N] | 2.08 |
| FTSSPSPFFSSSPENVEDSGLDSP [S9F] | 2.34 |
| FTSSPIPFSSSSPENVEDSGLDSP [S6I] | 2.22 |
| FTSSPNPFSSSSPENVEDSGLDSP [S6N] | 1.98 |
| FTSSPQPFSSSSPENVEDSGLDSP [S6Q] | 2.08 |
| FTSSPDPFSSSSPENVEDSGLDSP [S6D] | 3.29 |
| FTSSPGPFSSSSPENVEDSGLDSP [S6G] | 2.02 |
| FTSSPFPFSSSSPENVEDSGLDSP [S6F] | 1.79 |
| FTSSPHPFSSSSPENVEDSGLDSP [S6H] | 2.23 |
| FTSSPRPFSSSSPENVEDSGLDSP [S6R] | 2.21 |
| FTSSPTPFSSSSPENVEDSGLDSP [S6T] | 2.19 |
| FTSSPKPFSSSSPENVEDSGLDSP [S6K] | 2.67 |
| FTSSPLPFSSSSPENVEDSGLDSP [S6L] | 1.86 |
| FTSSPVPFSSSSPENVEDSGLDSP [S6V] | 1.99 |
| FTSSPMPFSSSSPENVEDSGLDSP [S6M] | 1.83 |
| FTSSPWPFSSSSPENVEDSGLDSP [S6W] | 2.44 |

| Variant | protein stability index |
| --- | --- |
| FTSSPCPFSSSSPENVEDSGLDSP [S6C] | 2.18 |
| FTSSPYPFSSSSPENVEDSGLDSP [S6Y] | 2.19 |
| FTSSPAPFSSSSPENVEDSGLDSP [S6A] | 2.37 |
| FTSSPEPFSSSSPENVEDSGLDSP [S6E] | 2.85 |
| FVSSPSPFSSSSPENVEDSGLDSP [T2V] | 2.93 |
| FRSSPSPFSSSSPENVEDSGLDSP [T2R] | 5.01 |
| FSSSPSPFSSSSPENVEDSGLDSP [T2S] | 2.86 |
| FNSSPSPFSSSSPENVEDSGLDSP [T2N] | 3.96 |
| FYSSPSPFSSSSPENVEDSGLDSP [T2Y] | 4.84 |
| FMSSPSPFSSSSPENVEDSGLDSP [T2M] | 3.48 |
| FPSSPSPFSSSSPENVEDSGLDSP [T2P] | 2.65 |
| FWSSPSPFSSSSPENVEDSGLDSP [T2W] | 3.64 |
| FQSSPSPFSSSSPENVEDSGLDSP [T2Q] | 1.58 |
| FTSGPSPFSSSSPENVEDSGLDSP [S4G] | 2 |
| FTSDPSPFSSSSPENVEDSGLDSP [S4D] | 2.03 |
| FTSEPSPFSSSSPENVEDSGLDSP [S4E] | 3.14 |
| FTSFPSPFSSSSPENVEDSGLDSP [S4F] | 2.9 |
| FTSVPSPFSSSSPENVEDSGLDSP [S4V] | 1.8 |
| FTSKPSPFSSSSPENVEDSGLDSP [S4K] | 2.13 |
| FTSQPSPFSSSSPENVEDSGLDSP [S4Q] | 2.14 |
| FTSMPSPFSSSSPENVEDSGLDSP [S4M] | 1.73 |
| FTSIPSPFSSSSPENVEDSGLDSP [S4I] | 2.19 |
| FTSRPSPFSSSSPENVEDSGLDSP [S4R] | 1.42 |
| FTSCPSPFSSSSPENVEDSGLDSP [S4C] | 2.35 |

| Variant | protein stability index |
| --- | --- |
| FTSNPSPFSSSSPENVEDSGLDSP [S4N] | 2.06 |
| FTSYPSPFSSSSPENVEDSGLDSP [S4Y] | 1.95 |
| FTSWPSPFSSSSPENVEDSGLDSP [S4W] | 3.58 |
| FTSTPSPFSSSSPENVEDSGLDSP [S4T] | 1.93 |
| FTSHPSPFSSSSPENVEDSGLDSP [S4H] | 1.91 |
| FTSLPSPFSSSSPENVEDSGLDSP [S4L] | 2.31 |
| FTSAPSPFSSSSPENVEDSGLDSP [S4A] | 1.71 |
| FTSPPSPFSSSSPENVEDSGLDSP [S4P] | 3.53 |
| FTSSPSPFSGSSPENVEDSGLDSP [S10G] | 2.02 |
| FTSSPSPFSRSSPENVEDSGLDSP [S10R] | 2.56 |
| FTSSPSPFSPSSPENVEDSGLDSP [S10P] | 2.3 |
| FTSSPSPFSYSSPENVEDSGLDSP [S10Y] | 2.07 |
| FTSSPSPFSNSSPENVEDSGLDSP [S10N] | 2.3 |
| FTSSPSPFSHSSPENVEDSGLDSP [S10H] | 2 |
| FTSSPSPFSQSSPENVEDSGLDSP [S10Q] | 1.92 |
| FTSSPSPFSESSPENVEDSGLDSP [S10E] | 2.05 |
| FTSSPSPFSDSSPENVEDSGLDSP [S10D] | 1.93 |
| FTSSPSPFSASSPENVEDSGLDSP [S10A] | 2.53 |
| FTSSPSPFSMSSPENVEDSGLDSP [S10M] | 1.94 |
| FTSSPSPFSKSSPENVEDSGLDSP [S10K] | 1.88 |
| FTSSPSPFSFSSPENVEDSGLDSP [S10F] | 2.09 |
| FTSSPSPFSISSPENVEDSGLDSP [S10I] | 2.7 |
| FTSSPSPFSCSSPENVEDSGLDSP [S10C] | 2.14 |
| FTSSPSPFSWSSPENVEDSGLDSP [S10W] | 2.7 |

| Variant | protein stability index |
| --- | --- |
| FTSSPSPFSVSSPENVEDSGLDSP [S10V] | 2.06 |
| FTSSPSPFSLSSPENVEDSGLDSP [S10L] | 1.71 |
| FTSSPSPFSTSSPENVEDSGLDSP [S10T] | 2.15 |
| FTSSPSPFSSTSPENVEDSGLDSP [S11T] | 1.67 |
| FTSSPSPFSSDSPENVEDSGLDSP [S11D] | 2.75 |
| FTSSPSPFSSFSPENVEDSGLDSP [S11F] | 1.62 |
| FTSSPSPFSSCSPENVEDSGLDSP [S11C] | 2.65 |
| FTSSPSPFSSKSPENVEDSGLDSP [S11K] | 1.86 |
| FTSSPSPFSSQSPENVEDSGLDSP [S11Q] | 2.06 |
| FTSSPSPFSSNSPENVEDSGLDSP [S11N] | 1.55 |
| FTSSPSPFSSLSPENVEDSGLDSP [S11L] | 1.63 |
| FTSSPSPFSSVSPENVEDSGLDSP [S11V] | 1.77 |
| FTSSPSPFSSASPENVEDSGLDSP [S11A] | 2.05 |
| FTSSPSPFSSPSPENVEDSGLDSP [S11P] | 1.86 |
| FTSSPSPFSSHSPENVEDSGLDSP [S11H] | 1.83 |
| FTSSPSPFSSISPENVEDSGLDSP [S11I] | 2.23 |
| FTSSPSPFSSYSPENVEDSGLDSP [S11Y] | 2.25 |
| FTSSPSPFSSWSPENVEDSGLDSP [S11W] | 2.39 |
| FTSSPSPFSSMSPENVEDSGLDSP [S11M] | 1.76 |
| FTSSPSPFSSRSPENVEDSGLDSP [S11R] | 2.01 |
| FTSSPSPFSSESPENVEDSGLDSP [S11E] | 2.18 |
| FTSSPSPFSSGSPENVEDSGLDSP [S11G] | 1.33 |
